In US20090280138A1 (OXFORD BIOMEDICA UK, published 2009) one finds t½ half life data, which are given here for four molecules.

Assay [1] has as its target T1, MHC class I molecule HLA-A*0301 (iTopia plate-bound monomer) (biotin (bound to streptavidin-coated plate)).
T1 construct: also called A3
The experiment in a line: iTopia off-rate assay, 37 C; fit R^2 0.84. Here is the method:
(§1) The 9 mers were tested for Peptide Binding, Off Rate and Affinity using iTopia Epitope Discovery System in accordance with the manufacturer's instructions. Briefly, 96 well microtitre plates coated with MHC molecules representing different MHC alleles are used to identify candidate peptides. […] Determinations are performed in duplicate using an ELISA plate reader and included allele specific positive controls.
(§2) A one-phase exponential decay curve, with a plateau given equal to 0, was generated using GraphPad Prism® software, which calculated the t1/2 and goodness-of-fit, as measured by r², for each peptide.

In assay [2] the target is T2, MHC class I molecule HLA-A*0201 (iTopia plate-bound monomer) (biotin (bound to streptavidin-coated plate)).
T2 construct: also called A2
In words: iTopia off-rate assay, 37 C; fit R^2 0.02. Here is the method: as §1, §2

Assay [3] deals with T2, MHC class I molecule HLA-A*0201 (iTopia …). The experiment in a line: iTopia off-rate assay, 37 C; fit R^2 0.9. In outline: (§3)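 First, 9-mer peptides were applied to plates coated with MHC alleles. Next, binding was read by ELISA reader in duplicate alongside allele-specific positive controls. Finally, the decay data were fitted (one-phase exponential, plateau 0) to obtain half-life and r².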

The target in assay [4] is T3, MHC class I molecule HLA-B*0702 (iTopia plate-bound monomer) (biotin (bound to streptavidin-coated plate)).
T3 construct: Commercial iTopia system; also called B7
The experiment in a line: iTopia off-rate assay, 37 C; fit R^2 0.94. A digest of the protocol:
as §3

The target of assay [5] is T1, MHC class I molecule HLA-A*0301 (iTopia …). The experiment in a line: iTopia off-rate assay, 37 C; fit R^2 0.87. In outline: as §3
Assay [6] addresses T2, MHC class I molecule HLA-A*0201 (iTopia …). In words: iTopia off-rate assay, 37 C; fit R^2 0.83. Here is the method: as §1, §2
For assay [7], the target named is T3, MHC class I molecule HLA-B*0702 (iTopia …). The experiment in a line: iTopia off-rate assay, 37 C; fit R^2 0.04. Here is the method:
as §1, §2

The target in assay [8] is T1, MHC class I molecule HLA-A*0301 (iTopia …). The experiment in a line: iTopia off-rate assay, 37 C; fit R^2 0.77. In outline: as §3
Assay [9] has as its target T2, MHC class I molecule HLA-A*0201 (iTopia …). The experiment in a line: iTopia off-rate assay, 37 C; fit R^2 0. Here is the method: as §1, §2

For the molecule LIGAIFLLV (also called Peptide No 183) [5T4 9-mer peptide 183 LIGAIFLLV], the t½ half life was 30 min in assay [1] and 19.4 h in [2].
As for LALIGAIFL (also called Peptide No 182) [5T4 9-mer peptide 182 LALIGAIFL], the t½ half life is 3.2 h in [3] and 30 min in assay [4].
As for VLYLNRKGI [5T4 9-mer peptide 187 VLYLNRKGI], the t½ half life in [5] amounted to 1.4 h; in assay [6], 36 min; in assay [7], 2.9 h.
With LLVLYLNRK (also called Peptide No 186) [5T4 9-mer peptide 186 LLVLYLNRK], the results for the t½ half life in assay [8] and in assay [9] were 3.2 h and 21.4 h, respectively.
